Laboratory results: publication PMC8196016

Biological target: SARS-CoV-2 RBD trimer protein (SARS-CoV-2 | bacteriophage T4) (UniProt P0DTC2)
Test: SEC; Superdex 200 Increase 10/300 GL; four peaks, peak 3 taken as the trimer by expected size and Western blotting under non-reducing conditions

Substance: SARS-CoV-2 RBD trimer protein (from UniProt P0DTC2 319-541) (domain or fragment)
- stoichiometry N: 3
